“And” between values parts separate entries of the source, which are not always exact repeats. Equal values may be shown once.
Legend:
Experiment in all cases: ELISA on coated protein, anti-human Fc HRP
CD28 = CD28 (UniProt P10747)
ICOS = ICOS (UniProt Q9Y6W8)
[1] = target: cynomolgus monkey PD-1 protein (cynomolgus monkey) (UniProt B0LAJ3)
[2] = target: murine PD-1 protein (murine) (UniProt Q02242)
CTLA-4 = CTLA-4 (UniProt P16410)
Chain of CTLA-4 (P16410 36-161 limits assumed): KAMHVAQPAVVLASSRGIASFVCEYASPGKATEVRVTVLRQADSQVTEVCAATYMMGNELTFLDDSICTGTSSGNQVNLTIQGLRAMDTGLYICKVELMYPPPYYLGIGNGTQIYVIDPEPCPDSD

Chain of ICOS (Q9Y6W8 21-140 limits assumed): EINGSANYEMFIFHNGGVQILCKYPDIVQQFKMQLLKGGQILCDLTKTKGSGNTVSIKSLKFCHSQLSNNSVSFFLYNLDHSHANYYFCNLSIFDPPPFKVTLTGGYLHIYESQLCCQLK
Chain of cynomolgus monkey PD-1 protein (cynomolgus monkey) (B0LAJ3 entry or part of it limits assumed, form in doubt): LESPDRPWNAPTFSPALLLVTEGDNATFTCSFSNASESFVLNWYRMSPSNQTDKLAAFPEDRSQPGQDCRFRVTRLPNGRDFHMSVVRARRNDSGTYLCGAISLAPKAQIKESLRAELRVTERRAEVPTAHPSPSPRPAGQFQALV
Chain of murine PD-1 protein (murine) (Q02242 25-167 limits assumed): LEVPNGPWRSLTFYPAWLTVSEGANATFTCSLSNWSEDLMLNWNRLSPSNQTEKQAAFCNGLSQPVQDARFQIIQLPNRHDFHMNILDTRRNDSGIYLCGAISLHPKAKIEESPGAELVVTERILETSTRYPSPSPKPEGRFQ

## Keytruda (antibody)
CD28
  ELISA (OD): 0.066 OD and 0.054 OD and 0.053 OD
ICOS
  ELISA (OD): 0.125 OD and 0.107 OD and 0.131 OD
[1]
  ELISA (OD): 2.22 OD and 2.32 OD
[2]
  ELISA (OD): 0.079 OD and 0.088 OD and 0.09 OD
CTLA-4
  ELISA (OD): 0.09 OD and 0.086 OD and 0.089 OD

## Opdivo (antibody)
CD28
  ELISA (OD): 0.02 OD and 0.021 OD and 0.023 OD
ICOS
  ELISA (OD): 0.023 OD and 0.021 OD and 0.022 OD
[1]
  ELISA (OD): 1.89 OD and 1.79 OD and 1.83 OD
[2]
  ELISA (OD): 0.024 OD and 0.023 OD
CTLA-4
  ELISA (OD): 0.024 OD and 0.022 OD and 0.019 OD
